Results taken from the RNAGym collection of RNA variant scans (doi:10.7554/elife.80360).

B1: HDV Ribozyme (parent)
chain: GGCCGGCAUGGUCCCAGCCUCCUCGCUGGCGCCGGCUGGGCAACAUUCCGAGGGGACCGUCCCCUCGGUAAUGGCGAAUGGGACCCA

Variants of: B1
Assay: self-cleavage, relative activity (ratio to wild type); higher = more cleavage; co-transcriptional

Going from GGCCGGCAUGGUCCCAGCCUCCUCGCUGGCGCCGGCUGGGCAACUUUCCGAGGGGACCGUCCCCUCGUUAAUGGCGAAUGGGACCCA [A45U G68U] to GGCCGGCAUGGUCCCAGCCUCCUCGCUGGCGCCGGCUGUGCAACAUUCCGAGGGGACCGUCCCCUCUGUAAUGGCGAAUGGGACCCA [G39U G67U], the self-cleavage falls from 0.845 to 0.727.

First: GGCCGGCAUGGUCCCAGCCUCCUCGCUGGCGCCGGCUGGGCACCAUUCCGAAGGGACCGUCCCCUCGGUAAUGGCGAAUGGGACCCA [A43C G52A]
Second: GGCAGGCAUGGUCCCAGGCUCCUCGCUGGCGCCGGCUGGGCAACAUUCCGAGGGGACCGUCCCCUCGGUAAUGGCGAAUGGGACCCA [C4A C18G]
The self-cleavage of the first is higher: 0.511 for the first, 0.166 for the second.

Compared with GGCCGGCAUGAUCCCAGCCUCCUCGCUGGCGCCGGCUGGGCAACAUUCCGAGGGGACCGUCCCCUCGGUAAUGGCGAAUGGGACCUA [G11A C86U], GGCCGGCAUGGUCCCAGCCUCCUCGCUGGUGCCGGCUGGGCAACAUUACGAGGGGACCGUCCCCUCGGUAAUGGCGAAUGGGACCCA [C30U C48A] is higher in self-cleavage: 0.338 for the first, 0.739 for the second.

First: GGCCGGCAUGGUCCCAGCCUCCUCGCUGGCGCCGGCUGGGCUUCAUUCCGAGGGGACCGUCCCCUCGGUAAUGGCGAAUGGGACCCA [A42U A43U]
Second: GGCCGGCAUGGUCCCAACCUCCUCGCUGGCGCCGGCUGGGCAACAUUCCGAGGGGACCGUCCCCUCGGUAAUGGCGAAUGGGACCGA [G17A C86G]
The self-cleavage of the first is higher: 0.604 for the first, 0.591 for the second.

Compared with GGCCGGUACGGUCCCAGCCUCCUCGCUGGCGCCGGCUGGGCAACAUUCCGAGGGGACCGUCCCCUCGGUAAUGGCGAAUGGGACCCA [C7U U9C], GGCCGGCAUGGUCCUAGCCUCCUCGCUGGCGCCGGCUGGGCAACAUUCCGAGGGGACCGUCCACUCGGUAAUGGCGAAUGGGACCCA [C15U C63A] is higher in self-cleavage: 1.02 for the first, 1.03 for the second.

Compared with GGCCGGCAUGGUCCCAGCCUCCUCGCUGGCGCCGGCUGGUCAACAUUCGGAGGGGACCGUCCCCUCGGUAAUGGCGAAUGGGACCCA [G40U C49G], GGCCGGCAUGGUCCCAGCCUCCUCGCUGGCGCCGUCAGGGCAACAUUCCGAGGGGACCGUCCCCUCGGUAAUGGCGAAUGGGACCCA [G35U U37A] is lower in self-cleavage: 0.888 for the first, 0.155 for the second.

Compared with GGCCGGCAUGGUCCCAGCCUCCUCGCUGGCGCCGGCUGGGCAACAUUCCGAGGGGACCGUCCCCUCGGUACUGGGGAAUGGGACCCA [A71C C75G], GGCGGGCAUGGUCCCAGCCUCCUCGCUGGCGCCGGCUGGGUAACAUUCCGAGGGGACCGUCCCCUCGGUAAUGGCGAAUGGGACCCA [C4G C41U] is higher in self-cleavage: 0.131 for the first, 0.289 for the second.

Compared with GGCGGGCAUGGUCCCAGCCUCCUCGCUGGCGCCGGCUGGGCAACAUUCCGAGGGGACCCUCCCCUCGGUAAUGGCGAAUGGGACCCA [C4G G59C], GGCCGGCAUGGACCCAGCCGCCUCGCUGGCGCCGGCUGGGCAACAUUCCGAGGGGACCGUCCCCUCGGUAAUGGCGAAUGGGACCCA [U12A U20G] is lower in self-cleavage: 0.481 for the first, 0 for the second.

First: GGCCGGCAUGGUCCCAGCCUCCUCGCUGGCGCCGGCUCGGCAACAUUCCGAGGGGACCGUCCCCUCGGGAAUGGCGAAUGGGACCCA [G38C U69G]
Second: GGCCGCCAUGGUCCCAGCCUCCUCGCUGGCGCCGGCUGGGCAACAUUCCGAGGGGACCGUCCCCUCGGUAAUGGCGAAUGGGAACCA [G6C C84A]
The self-cleavage of the first is higher: 0.356 for the first, 0.332 for the second.

Going from GGCCGGCAUGGUCCCAGCCUCCUCGCUGGCGCCGGCUGGGCAACAUUCCGAGGGGGCCGUCCCCUCGGUAAUGGCGAAUGGGACCCA [A56G] to GGCCGGCAGGGUCCCAGCCUCCUCGCUGGCGCCGGCUGGGCAACAUUCCGAGGGGACCGUCCCCUCGGUAAUGGCGAAUGGGACCAA [U9G C86A], the self-cleavage falls from 0.995 to 0.959.

First: GGCCCGCAUGGUCCCAGCCUCCUCGCUGGCGCCGGCUGUGCAACAUUCCGAGGGGACCGUCCCCUCGGUAAUGGCGAAUGGGACCCA [G5C G39U]
Second: GGCAGGCAUGGUCCCAGCCUCCUCGCUGGCGCCGGCUGGGCAACAUCCCGAGGGGACCGUCCCCUCGGUAAUGGCGAAUGGGACCCA [C4A U47C]
The self-cleavage of the first is lower: 0.0346 for the first, 0.293 for the second.

First: GGCCGGCAUGGUCCCAGCCUCCUCGCUGGCGCCGGCUGGGCAACAUUCCGAGGGGACCGUCCCCUCGGCAAUGGCGAAUGGCACCCA [U69C G82C]
Second: GGCCGGCAUGGUCCCAGCCUCCUCGCUGGCGCCGGCUGGCCAACAUUCCUAGGGGACCGUCCCCUCGGUAAUGGCGAAUGGGACCCA [G40C G50U]
The self-cleavage of the first is higher: 0.361 for the first, 0.269 for the second.

Going from GGCCGGCAUGGUCCCAGCCUCCUCGCUGCCGCAGGCUGGGCAACAUUCCGAGGGGACCGUCCCCUCGGUAAUGGCGAAUGGGACCCA [G29C C33A] to GGCCGGCAUGGUCCCAGCCUCCUCGCUGGCGCCGGCUGGGCAACAUUCCGAGGGGACCGUCCCCUCGGUAGUGGCUAAUGGGACCCA [A71G G76U], the self-cleavage rises from 0.0959 to 1.1.

Compared with GGCCGGCAUGGUCCCAGCAUCCUCGCUGGCGCCGGCUGGGCAACAUUCCGAGGGGACCGUCCCCUCGGUACUGGCGAAUGGGACCCA [C19A A71C], GGCCGGCAAGGUCCCAGCCACCUCGCUGGCGCCGGCUGGGCAACAUUCCGAGGGGACCGUCCCCUCGGUAAUGGCGAAUGGGACCCA [U9A U20A] is higher in self-cleavage: 0.0396 for the first, 0.185 for the second.

First: GGCCGGCAUGGUCCCAGCCUCCUCGCUGGCGCCGGCUGGGCAAAAUUCCGAGGGGACCGUCCCCUCGGUAAUGGCGAAUGGGACCCA [C44A]
Second: GGCCGGCAUGGUCCCAGCCUCCUCGCUGGCGCCGGCUGGGCAACAUUCCGGGGCGACCGUCCCCUCGGUAAUGGCGAAUGGGACCCA [A51G G54C]
The self-cleavage of the first is lower: 0.764 for the first, 1.37 for the second.

First: GGCCGGCAUGGUCCCAGCCUCCUCGCUGCCGCCGGCUGGGCAACAUUCCGAGGGGGCCGUCCCCUCGGUAAUGGCGAAUGGGACCCA [G29C A56G]
Second: GGCCGGCAUGGCCCCAGCCUCCUCGCUGGCGCCGGCUGGGCAACACUCCGAGGGGACCGUCCCCUCGGUAAUGGCGAAUGGGACCCA [U12C U46C]
The self-cleavage of the first is lower: 0.0615 for the first, 0.101 for the second.
